Measurements taken from patent publication US20240026011A1 (published 2024).
Changes are numbered by the printed parent chain.

B1: h445 (Pro512) (antibody, V domains shown)
VH: QVQLVESGGGLVKPGGSLRLSCAASGITFNLHAMRWYRRAPGKQRELVAYISARDWTNYADSVKGRFTISRDNAKNSLYLQMNSLRAEDTAVYYCNTDLVGEDYWGRGTLVTVSS
B2: h456 (Pro509) (antibody, V domains shown)
VH: QVQLVESGGGLVQPGGSLRLSCAASGSALIINAMGWYRQAPGKQRELVATVTRSGRTNYADSVKGRFTISRDNSKNTLYLQMNSLRAEDTAVYYCNVALWIADGEYDYWGQGTLVTVSS
B3: h476 (Pro510) (antibody, V domains shown)
VH: QVQLVESGGGLVQPGGSLRLSCAASGNIFIINVMGWYRQAPGKQRELVATITNGGRTHYADSVKGRFTISRDNSKNTLYLQMNSLRAEDTAVYYCNANHIELGDYWGQGTLVTVSS
B4: Pro1043 VIB1139 (bispecific antibody, V domains shown)
VH: QVQLQESGGGLVQPGGSLRLSCAASGFTFDDYAMSWIRQAPGKEMEWVSGINWSGTHTRYADSVKGRFTISRDNAKNTLDLQMNSLISEDTAVYYCARGFAADSRSTRGQGTQVTVSS
B5: 1058 (Pro1037) (protein)
chain: QVQLQESGGGLVQPGGSLRLTCAASGRAISSYAISWFRQAPGEEREFVAAINWSGTHTNYADSVKGRFTISRDNVKNTVYLQMNSLKPEDTATYFCSRGWSVFDPDYRGQGTQVTVSS
B6: Pro1045 VIB1159 (bispecific antibody, V domains shown)
VH: QVQLQESGGGLVQAGGSLRLSCATSGRTFSSLAMGWFRQAPGKERELVAGISWSGSTTYYADSVKGRFAISRDNAKNTVYLQMNSLKPEDTAVYYCAARTSSIATIGREYDYWGQGTQVTVSS
B7: Pro1038 VIB1059 (bispecific antibody, V domains shown)
VH: B5 chain with N59D, V75A, T93V
B8: 1091 (Pro1039) (protein)
chain: QVQLQESGGGLVQPGGSLRLSCAASGFTFDDYAMSWVRQAPGKGLEWVSSINWSGTHTDYADSVKGRFTISRDNAKNTLYLQMNSLKSEDSAVYYCVKGWRLTGGYYDSVQGQGTQVTVSS
B9: 1092 (Pro1040) (protein)
chain: B8 chain with P14A, G16A, M34L
B10: humanized aHER2 sdAb h1162 (VHH)
VHH: QVQLLESGGGLVQPGGSLRLSCAASGRPFSGNAMGWFRQAPGKEREFVAAISWSGDSTYYADSVKGRFTISRDNSKNTLYLQMNSLRAEDTAVYYCAATRSFYSRTYYTRPSDYNYWGPGTLVTVSS
B11: 1097 (Pro1041) (protein)
chain: B8 chain with T28I, S35T, L102H, G104D, G105N, D108A, S109G
B12: Pro1036 VIB1055 (bispecific antibody, V domains shown)
VH: B5 chain with A23E, A24V
B13: 1121 (Pro1042) (protein)
chain: QVQLQESGGGLVQAGGSLRLSCAASGFIFSDYAMTWVRQAPGKGLEWVSSINWSGTHTNYADSVKGRFTISRDNAKKTLYLQMNSLKSEDTAVYYCARGWMVVPDSTRGQGTQVTVSS
B14: h1139 (Pro1060) (protein)
chain: B4 VH with Q5V, L11V, Q13R, T78S, D80Y, I87R, S88A, V93L, Q113L
B15: Pro1047 VIB1162 (bispecific antibody, V domains shown)
VH: B10 VHH with L5Q, P14A, S75D, K76E, L79A, R87K, A88P, L122Q
B16: 1160 (Pro1046) (antibody, V domains shown)
VH: QVQLQESGGGLVQAGGSLRLSCAASGRTFSNERLGWFRQAPGKERELVAAIRWSGVIIGYADSVRGRFTISRDNAKSTVYLQMNSLRPEDTAVYFCAADRGVYGTWDYWGQGTQVTVSS
B17: Pro1044 VIB1156 (bispecific antibody, V domains shown)
VH: QVQLQESGGGLVQAGGSLKVSCAASRNIGSNYAVGWFRQAPGKEREPVAALRWTGSIIGYDDSLRGRFTISKDDAKNTVYLQMNSLKPEDTGVYYCAARILDRSSYDYWGQGTQVTVSS
B18: h1159 (Pro1062) (antibody, V domains shown)
VH: B6 VH with Q5L, A14P, A75S, V79L, K87R, P88A, Q118L

Each binder was assayed against human CA9 on cells (human, UniProt Q16790 38-459) (assay: affinity; Pro51 format).

Binder	Kd [nM]
B1	3.1
B2	0.7
B3	1.6

These binders were tested against cyno CA9 on cells (cyno, UniProt A0A2K5VQG9 38-447) (assay: affinity; Pro51 format).
Sequence of cyno CA9 on cells (A0A2K5VQG9 entry or part of it): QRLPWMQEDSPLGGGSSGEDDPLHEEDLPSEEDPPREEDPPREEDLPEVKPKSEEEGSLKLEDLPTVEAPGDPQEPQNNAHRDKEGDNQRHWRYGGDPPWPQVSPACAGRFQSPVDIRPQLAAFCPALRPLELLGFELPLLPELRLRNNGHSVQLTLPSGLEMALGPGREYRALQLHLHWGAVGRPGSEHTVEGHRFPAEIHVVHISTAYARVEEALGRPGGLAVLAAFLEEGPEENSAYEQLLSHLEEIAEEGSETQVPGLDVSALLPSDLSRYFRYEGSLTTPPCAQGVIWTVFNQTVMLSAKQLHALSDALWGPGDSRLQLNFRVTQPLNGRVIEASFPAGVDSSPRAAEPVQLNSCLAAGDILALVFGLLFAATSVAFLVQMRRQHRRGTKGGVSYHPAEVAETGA

Binder	Kd [nM]
B1	4.9
B2	1.1
B3	1.2

Each binder was assayed against cyno HER2 on cells (cynomolgus monkey, UniProt A0A2K5WUT7 1-1225) (assay: kinetic affinity (kon/koff); Pro51 format).

Binder	Kd [nM]
B4	6.7
B5	9.7
B6	17
B7	85
B8	8.5
B9	4.5
B10	21.8
B11	4.3
B12	69.9
B13	4.6
B14	7.4
B15	21.2
B16	10.8
B17	9
B18	37

Each binder was assayed against human HER2 on cells (human, UniProt P04626 23-1255) (assay: kinetic affinity (kon/koff); Pro51 format).

Binder	Kd [nM]
B5	8.6
